Consider 19 molecules from patent publication US20240272170A1.

The target of experiment [1] is T1, HA peptide (Octet assay of PS621 variants).
T1 sequence (peptide): HAKLDEESILKQK
The experiment can be described thus: Octet (BLI), 30 C. In general terms: BLI is a label-free optical method that tracks binding on a fibre tip over time.

For experiment [2], the target named is WA peptide (Octet assay of PS557 variants). The experiment can be described thus: Octet (BLI), peptide on sensor, response after 200 s association.
Experiment [3] deals with FA peptide (Octet assay of PS557 variants). The description is as above.
Experiment [4] deals with IA peptide (Octet assay of PS557 variants). The experiment is described as above.
The target in experiment [5] is YA peptide (Octet assay of PS557 variants). The description is as above.
Experiment [6] has as its target MA peptide (Octet assay of PS557 variants). Described as above.
Experiment [7] has as its target N-terminal alanine peptide (SNAP display selection). The experiment can be described thus: SNAP display, 4 rounds of selection on alanine peptide; NGS abundance in round 4 / naive library.

B1: PS1101 (designed binder)
chain: MHSKFSHAGRICGAKFKVREPIYRCKECSFDDTCVLCVNCFNPKDHTGHHVYTTICTEFNNGICDCGDKEAWNHTLFCKAEEG
B1 displayed an Octet response in experiment [1] of 0.1.

B2: PS796 (designed binder)
chain: MPTAASATESAIEDTPAPARPEVDGRTKPKRQPRYHVVLWDDDDHTYQYVVVMLQSLFGHPPERGYRLAKEMDTQGRVIVLTTTREHAELKRDQIHAFGYDRLLARSKGSMKASIEAEE
Turning to B2, the Octet response came out at 0.761 nm in experiment [2]; 1.37 nm in experiment [3]; 11.6 nm in experiment [4]; 1.23 nm in experiment [5]; 8.42 nm in experiment [6].

B3: PS808 (designed binder)
chain: MPTAASATESAIEDTPAPARPEVDGRTKPKRQPRYHVVLWNDDDHTYQYVVVMLRSLFGHPPERGYRLAKEVDTQGRVIVLTTTREHAELKRDQIHAFGYDRLLARSKGSMKASIEAEE
In the case of B3, the Octet response in experiment [2] stood at 0.00243 nm; in experiment [3] it was 0.00233 nm; in experiment [4] it was 9.27 nm; in experiment [5] it was 0.0539 nm; in experiment [6], 1.88 nm.

B4: PS557 mutant N41D, E63S, L68M, V72M, R106H (SNAP display clone) (designed binder, not shown: large carriers; small tags and cut ends)
chain: MPTAASATESAIEDTPAPARPEVDGRTKPKRQPRYHVVLWDDDDHTYQYVVVMLQSLFGHPPSRGYRMAKEMDTQGRVIVLTTTREHAELKRDQIHAFGYDRLLAHSKGSMKASIEAEE
modifications: In the selection the protein carried an N-terminal SNAP tag covalently bound to benzylguanine on its own coding DNA; this is not in the letters.
Regarding B4, in experiment [7], the Enrichment was determined as 124.

B5: PS557 mutant N41D, Q55R, E63A, V72M, Y100R (SNAP display clone) (designed binder, not shown: large carriers; small tags and cut ends)
chain: MPTAASATESAIEDTPAPARPEVDGRTKPKRQPRYHVVLWDDDDHTYQYVVVMLRSLFGHPPARGYRLAKEMDTQGRVIVLTTTREHAELKRDQIHAFGRDRLLARSKGSMKASIEAEE
modifications: In the selection the protein carried an N-terminal SNAP tag covalently bound to benzylguanine on its own coding DNA; this is not in the letters.
For the molecule B5, in experiment [7], the Enrichment came to 154.

B6: PS557 mutant N41D, Q55R, H60I, V72M (SNAP display clone) (designed binder, not shown: large carriers; small tags and cut ends)
chain: MPTAASATESAIEDTPAPARPEVDGRTKPKRQPRYHVVLWDDDDHTYQYVVVMLRSLFGIPPERGYRLAKEMDTQGRVIVLTTTREHAELKRDQIHAFGYDRLLARSKGSMKASIEAEE
modifications: In the selection the protein carried an N-terminal SNAP tag covalently bound to benzylguanine on its own coding DNA; this is not in the letters.
B6: the Enrichment in experiment [7] is 320.

B7: PS798 (designed binder)
chain: MPTAASATESAIEDTPAPARPEVDGRTKPKRQPRYHVVLWNDDDHTYQYVVVMLQSLFGHPPERGYRLAKEMDTLGRVIVLTTTREHAELKRDQIHAFGYDRLLARSKGSMKASIEAEE
With B7, the Octet response in experiment [3] was 1.41 nm; in experiment [4], 12.7 nm; in experiment [6], 9.37 nm.

B8: PS557 mutant N41D, Q55R, E63S, L68M, V72M, Y100R (SNAP display clone) (designed binder, not shown: large carriers; small tags and cut ends)
chain: MPTAASATESAIEDTPAPARPEVDGRTKPKRQPRYHVVLWDDDDHTYQYVVVMLRSLFGHPPSRGYRMAKEMDTQGRVIVLTTTREHAELKRDQIHAFGRDRLLARSKGSMKASIEAEE
modifications: In the selection the protein carried an N-terminal SNAP tag covalently bound to benzylguanine on its own coding DNA; this is not in the letters.
For B8, in experiment [7], the Enrichment was determined as 166.

B9: PS801/PS814 (designed binder)
chain: MPTAASATESAIEDTPAPARPEVDGRTKPKRQPRYHVVLWNDDDHTYQYVVVMLQSLFGHPPKRGYRLAKEVDTQGRVIVLTTTREHAELKRDQIHAFGYDRLLARSKGSMKASIEAEE
On to B9, for which the Octet response in experiment [2] is 0.0148 nm; in experiment [3], 0.00662 nm; in experiment [4] it was 9.02 nm; in experiment [5] it was 0.054 nm; in experiment [6], 1.75 nm.

B10: PS828 (designed binder)
chain: MPTAASATESAIEDTPAPARPEVDGRTKPKRQPRYHVVLWDDDDHTYQYVVVMLQSLFGHPRERGYRLAKEVDTLGRVIVLTTTREHAELKRDQIHAFGYDRLLARSKGSMKASIEAEE
Consider B10, for which the Octet response came out at 0.583 nm in experiment [3], 5.32 nm in experiment [4] and 1.7 nm in experiment [6].

B11: PS830 (designed binder)
chain: MPTAASATESAIEDTPAPARPEVDGRTKPKRQPRYHVVLWDDDDHTYQYVVVMLQSLFGHPRKRGYRLAKEMDTLGRVIVLTTTREHAELKRDQIHAFGYDRLLARSKGSMKASIEAEE
For the molecule B11, the Octet response in experiment [3] came to 0.0339 nm; in experiment [4] it was 6.51 nm; in experiment [6] it was 2.16 nm.

B12: PS797 (designed binder)
chain: MPTAASATESAIEDTPAPARPEVDGRTKPKRQPRYHVVLWDDDDHTYQYVVVMLQSLFGHPPERGYRLAKEMDTLGRVIVLTTTREHAELKRDQIHAFGYDRLLARSKGSMKASIEAEE
Take B12: the Octet response in experiment [3] worked out at 0.202 nm; in experiment [4], 11.6 nm; in experiment [6], 8.71 nm.

B13: PS557 mutant N41D, Q55R, P62Y, E63T, V72M, Y100R (SNAP display clone) (designed binder, part only)
chain: MPTAASATESAIEDTPAPARPEVDGRTKPKRQPRYHVVLWDDDDHTYQYVVVMLRSLFGHPYTRGYRLAKEMDTQGRVIVLTTTREHAELKRDQIHAFGRDRLLARSKGSMKASIEAEE
modifications: N-terminal SNAP tag
B13 showed an Enrichment in experiment [7] of 158.

B14: PS838 (designed binder)
chain: MPTAASATESAIEDTPAPARPEVDGRTKPKRQPRYHVVLWDDDDHTYQYVVVMLQSLFGHPRERGYRLAKEMDTQGRVIVLTTTREHAELKRDQIHAFGYDRLLARSKGSMKASIEAEE
Regarding B14, the Octet response in experiment [2] stood at 0.0581 nm; in experiment [3], 0.377 nm; in experiment [4], 11.2 nm; in experiment [5], 0.59 nm; in experiment [6], 8.09 nm.

B15: PS557 mutant N41D, Q55R, E63W, V72M, R106H (SNAP display clone) (designed binder, not shown: large carriers; small tags and cut ends)
chain: MPTAASATESAIEDTPAPARPEVDGRTKPKRQPRYHVVLWDDDDHTYQYVVVMLRSLFGHPPWRGYRLAKEMDTQGRVIVLTTTREHAELKRDQIHAFGYDRLLAHSKGSMKASIEAEE
modifications: In the selection the protein carried an N-terminal SNAP tag covalently bound to benzylguanine on its own coding DNA; this is not in the letters.
In experiment [7], B15 showed an Enrichment of 133.

B16: PS819 (designed binder)
chain: MPTAASATESAIEDTPAPARPEVDGRTKPKRQPRYHVVLWDDDDHTYQYVVVMLQSLFGHPPKRGYRLAKEMDTQGRVIVLTTTREHAELKRDQIHAFGYDRLLARSKGSMKASIEAEE
With B16, the figures for the Octet response in experiment [4] and in experiment [6] were 9.06 nm and 3.75 nm, respectively.

B17: PS847 (designed binder)
chain: MPTAASATESAIEDTPAPARPEVDGRTKPKRQPRYHVVLWDDDDHTYQYVVVMLRSLFGHPPERGYRLAKEMDTQGRVIVLTTTREHAELKRDQIHAFGYDRLLARSKGSMKASIEAEE
For the molecule B17, the Octet response in experiment [2] turned out to be 0.0098 nm; in experiment [3] it was 0.059 nm; in experiment [4] it was 7.77 nm; in experiment [5] it was 0.0607 nm; in experiment [6], 3.23 nm.

B18: PS831 (designed binder)
chain: MPTAASATESAIEDTPAPARPEVDGRTKPKRQPRYHVVLWNDDDHTYQYVVVMLQSLFGHPRKRGYRLAKEMDTLGRVIVLTTTREHAELKRDQIHAFGYDRLLARSKGSMKASIEAEE
Consider B18, for which the Octet response in experiment [3] amounted to 0.755 nm; in experiment [4] it was 10.5 nm; in experiment [6], 4.86 nm.

B19: PS809 (designed binder)
chain: MPTAASATESAIEDTPAPARPEVDGRTKPKRQPRYHVVLWNDDDHTYQYVVVMLQSLFGHPPERGYRLAKEMDTQGRVIVLTTTREHAELKRDQIHAFGYDRLLARSKGSMKASIEAEE
Regarding B19, the Octet response in experiment [2] was found to be 0.0117 nm; in experiment [3], 0.0032 nm; in experiment [4], 8.52 nm; in experiment [5], 0.0027 nm; in experiment [6], 2.23 nm.
